{"source": "the RNAGym collection of RNA variant scans (doi:10.1021/acssynbio.7b00057)", "parents": {"B1": {"name": "Pistol ribozyme (parent)", "chain": "GGGUCGUUGUUCCAUAAUCGCGUGGAUAUGGCACGCAAGUUUCUACCGGGCACCGUAAAUGUCCGACUGGAGCCGUUCGGGCGGCUAUAAACAGACCUCAGGCCCGAAGCGUGGCGGCACCUGCCGCCGGUGGUAAAAAAGAUCGGAAGAGCACACGUCU"}}}
{"variants_of": "B1", "assay": "aptazyme ON/OFF ratio, guanine; higher = stronger switching; co-transcriptional cleavage with and without guanine"}
{"variant": "U7C U8A U10C C12A C13U", "aptazyme ON/OFF ratio": 1.24}
{"variant": "U7C U8A U10C C12A C13G", "aptazyme ON/OFF ratio": 1.07}
{"variant": "U7C U8A U10C C12A C13A", "aptazyme ON/OFF ratio": 1.17}
{"variant": "U7C U8A U10A C13U", "aptazyme ON/OFF ratio": 1.06}
{"variant": "U7C U8A U10A C13A", "aptazyme ON/OFF ratio": 1.07}
{"variant": "U7C U8A U10A C13G", "aptazyme ON/OFF ratio": 1.08}
{"variant": "U7C U8A U10C U11C C12A", "aptazyme ON/OFF ratio": 1.17}
{"variant": "U7C U8A U10C U11C C12U", "aptazyme ON/OFF ratio": 1.09}
{"variant": "U7C U8A U10C U11C C12G", "aptazyme ON/OFF ratio": 1.25}
{"variant": "U7C U8A G9U U10G U11G C12U C13A", "aptazyme ON/OFF ratio": 1.11}
{"variant": "U7C U8A G9U U10G U11G C12U C13G", "aptazyme ON/OFF ratio": 1.15}
{"variant": "U7C U8A G9U U10G U11G C12U C13U", "aptazyme ON/OFF ratio": 1.3}
{"variant": "U7C U8A U10C U11G C12A C13G", "aptazyme ON/OFF ratio": 1.21}
{"variant": "U7C U8A U10C U11G C12A C13U", "aptazyme ON/OFF ratio": 1.14}
{"variant": "U7C U8A U10C U11G C12A C13A", "aptazyme ON/OFF ratio": 1.16}
{"variant": "U7C U8A G9U U10C U11G C13U", "aptazyme ON/OFF ratio": 1.19}
{"variant": "U7C U8A G9U U10C U11G C13A", "aptazyme ON/OFF ratio": 1.18}
{"variant": "U7C U8A G9U U10C U11G C13G", "aptazyme ON/OFF ratio": 1.04}
{"variant": "U7C U8A G9U U11C C12U", "aptazyme ON/OFF ratio": 1.17}
{"variant": "U7C U8A G9U U11C C12A", "aptazyme ON/OFF ratio": 1.13}
{"variant": "U7C U8A G9U U11C C12G", "aptazyme ON/OFF ratio": 1.14}
{"variant": "U7C U8A G9U U10C U11A C12G", "aptazyme ON/OFF ratio": 1.12}
{"variant": "U7C U8A G9U U10C U11A C12A", "aptazyme ON/OFF ratio": 1.13}
{"variant": "U7C U8A G9U U10C U11A C12U", "aptazyme ON/OFF ratio": 1.12}
{"variant": "U7C U8A U10A U11A C12A C13A", "aptazyme ON/OFF ratio": 1.25}
{"variant": "U7C U8A U10A U11A C12A C13G", "aptazyme ON/OFF ratio": 1.17}
{"variant": "U7C U8A U10A U11A C12A C13U", "aptazyme ON/OFF ratio": 1.31}
{"variant": "U7C U8A U10C U11G C13G", "aptazyme ON/OFF ratio": 1.1}
{"variant": "U7C U8A U10C U11G C13A", "aptazyme ON/OFF ratio": 1.17}
{"variant": "U7C U8A U10C U11G C13U", "aptazyme ON/OFF ratio": 1.16}
{"variant": "U7C U8A G9U U11A C12U C13U", "aptazyme ON/OFF ratio": 1.22}
{"variant": "U7C U8A G9U U11A C12U C13A", "aptazyme ON/OFF ratio": 1.16}
{"variant": "U7C U8A G9U U11A C12U C13G", "aptazyme ON/OFF ratio": 1.23}
{"variant": "U7C U8A G9U U10G", "aptazyme ON/OFF ratio": 1.26}
{"variant": "U7C U8A G9U U10C C12U C13G", "aptazyme ON/OFF ratio": 1.12}
{"variant": "U7C U8A G9U U10C C12U C13U", "aptazyme ON/OFF ratio": 1.13}
{"variant": "U7C U8A G9U U10C C12U C13A", "aptazyme ON/OFF ratio": 1.12}
{"variant": "U7C U8A G9U U11C C12U C13A", "aptazyme ON/OFF ratio": 1.05}
{"variant": "U7C U8A G9U U11C C12U C13U", "aptazyme ON/OFF ratio": 1.21}
{"variant": "U7C U8A G9U U11C C12U C13G", "aptazyme ON/OFF ratio": 1}
{"variant": "U7C U8A G9U U10C U11G C12A", "aptazyme ON/OFF ratio": 1.07}
{"variant": "U7C U8A G9U U10C U11G C12U", "aptazyme ON/OFF ratio": 1.21}
{"variant": "U7C U8A G9U U10C U11G C12G", "aptazyme ON/OFF ratio": 1.11}
{"variant": "U7C U8A G9U U10G C12A C13G", "aptazyme ON/OFF ratio": 1.13}
{"variant": "U7C U8A G9U U10G C12A C13U", "aptazyme ON/OFF ratio": 1.17}
{"variant": "U7C U8A G9U U10G C12A C13A", "aptazyme ON/OFF ratio": 1.19}
{"variant": "U7C U8A U10A U11G C12A C13G", "aptazyme ON/OFF ratio": 1.17}
{"variant": "U7C U8A U10A U11G C12A C13U", "aptazyme ON/OFF ratio": 1.19}
{"variant": "U7C U8A U10A U11G C12A C13A", "aptazyme ON/OFF ratio": 1.12}
{"variant": "U7C U8A G9U U11C C12G C13A", "aptazyme ON/OFF ratio": 1.17}
{"variant": "U7C U8A G9U U11C C12G C13U", "aptazyme ON/OFF ratio": 1.16}
{"variant": "U7C U8A G9U U11C C12G C13G", "aptazyme ON/OFF ratio": 1.12}
{"variant": "U7C U8A G9U U10G U11A C12A", "aptazyme ON/OFF ratio": 1.34}
{"variant": "U7C U8A G9U U10G U11A C12G", "aptazyme ON/OFF ratio": 1.21}
{"variant": "U7C U8A G9U U10G U11A C12U", "aptazyme ON/OFF ratio": 1.06}
{"variant": "U7C U8A G9U U10G U11C C12A", "aptazyme ON/OFF ratio": 1.21}
{"variant": "U7C U8A G9U U10G U11C C12G", "aptazyme ON/OFF ratio": 1.26}
{"variant": "U7C U8A G9U U10G U11C C12U", "aptazyme ON/OFF ratio": 1.07}
{"variant": "U7C U8A G9U U10C U11C C12A C13A", "aptazyme ON/OFF ratio": 1.06}
{"variant": "U7C U8A G9U U10C U11C C12A C13U", "aptazyme ON/OFF ratio": 1.12}
{"variant": "U7C U8A G9U U10C U11C C12A C13G", "aptazyme ON/OFF ratio": 1.29}
{"variant": "U7C U8A G9U U10C C12G C13A", "aptazyme ON/OFF ratio": 1.18}
{"variant": "U7C U8A G9U U10C C12G C13G", "aptazyme ON/OFF ratio": 1.28}
{"variant": "U7C U8A G9U U10C C12G C13U", "aptazyme ON/OFF ratio": 1.22}
{"variant": "U7C U8A U10A C12G", "aptazyme ON/OFF ratio": 1.19}
{"variant": "U7C U8A U10A C12A", "aptazyme ON/OFF ratio": 1.3}
{"variant": "U7C U8A U10A C12U", "aptazyme ON/OFF ratio": 1.13}
{"variant": "U7C U8A U10G U11A C12G C13U", "aptazyme ON/OFF ratio": 1.29}
{"variant": "U7C U8A U10G U11A C12G C13A", "aptazyme ON/OFF ratio": 1.12}
{"variant": "U7C U8A U10G U11A C12G C13G", "aptazyme ON/OFF ratio": 1.18}
{"variant": "U7C U8A U10G U11A C12U", "aptazyme ON/OFF ratio": 1.16}
{"variant": "U7C U8A U10G U11A C12A", "aptazyme ON/OFF ratio": 1.22}
{"variant": "U7C U8A U10G U11A C12G", "aptazyme ON/OFF ratio": 1.33}
{"variant": "U7C U8A U10G C12U", "aptazyme ON/OFF ratio": 1.34}
{"variant": "U7C U8A U10G C12G", "aptazyme ON/OFF ratio": 1.34}
{"variant": "U7C U8A U10G C12A", "aptazyme ON/OFF ratio": 1.21}
{"variant": "U7C U8A U10A C12A C13G", "aptazyme ON/OFF ratio": 1.21}
{"variant": "U7C U8A U10A C12A C13U", "aptazyme ON/OFF ratio": 1.15}
{"variant": "U7C U8A U10A C12A C13A", "aptazyme ON/OFF ratio": 1.17}
{"variant": "U7C U8A U10G U11A", "aptazyme ON/OFF ratio": 1.06}
{"variant": "U7C U8A U10G U11C", "aptazyme ON/OFF ratio": 1.07}
{"variant": "U7C U8A G9U U10G U11G C12G C13G", "aptazyme ON/OFF ratio": 1.14}
{"variant": "U7C U8A G9U U10G U11G C12G C13U", "aptazyme ON/OFF ratio": 1.14}
